Broadly, the Kd is the free concentration of one partner at which half of the binding sites on the other are occupied at equilibrium, for simple one-to-one binding.

In this test the target is Fluorescent probe peptide NH3+-NLVGRF-[DAP-FAM]-VSPVPE-COO- (human). Nature of the test: fluorescence polarisation.

Sequence of His6-tagged OSR1 CCT domain (human OSR1 433–527) (O95747 433-527): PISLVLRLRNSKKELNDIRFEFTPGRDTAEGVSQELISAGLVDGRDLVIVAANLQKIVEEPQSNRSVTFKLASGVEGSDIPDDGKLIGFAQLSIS

For “His6-tagged OSR1 CCT domain (human OSR1 433–527) (from UniProt O95747 433-527) (domain or fragment)”, the Kd turned out to be 1.5 µM.
Regarding “His6-tagged SPAK CCT domain (mouse SPAK 459–556) (from UniProt Q9Z1W9 459-556) (domain or fragment)”, the Kd is 0.67 µM.
“Purified SPAK CCT domain D477Q (domain or fragment)” came in with a fold decrease in peptide probe binding affinity against wild type of 50 fold.

Values taken from PMC12413468.
